Measured values: patent US20200033338A1

Tests used:
[1] = target: K10N/V75I/Q111D human 39MIR triple mutant, IChBD fusion (human); assay: Western blot (FIG. 7)
[2] = target: K10N/D70A/V75I/Q111D human 39MIR quadruple mutant, IChBD fusion (human); assay: Western blot (FIG. 7)
[3] = target: K10N/D70A human 39MIR double mutant, IChBD fusion (human); assay: Western blot of peptide-IChBD fusion (FIG. 7)
[4] = target: K10N/V75I human 39MIR double mutant, IChBD fusion (human); assay: Western blot of peptide-IChBD fusion (FIG. 7)
Sequence of K10N/V75I human 39MIR double mutant, IChBD fusion (human) (chain, as listed by the source K10N V75I K10N V75I): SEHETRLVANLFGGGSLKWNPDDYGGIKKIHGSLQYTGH

[5] = target: K10N/V75I/Q111D human 39MIR triple mutant, IChBD fusion (human); assay: Western blot of peptide-IChBD fusion (FIG. 7)
[6] = target: V75I/Q111D human 39MIR double mutant, IChBD fusion (human); assay: Western blot of peptide-IChBD fusion (FIG. 7)
Sequence of V75I/Q111D human 39MIR double mutant, IChBD fusion (human) (chain, as listed by the source V75I Q111D V75I Q111D): as the sequence (chain, as listed by the source K10N V75I K10N V75I) above, with N10K, Q35D counted along it

[7] = target: K10N/Q111D human 39MIR double mutant, IChBD fusion (human); assay: Western blot of peptide-IChBD fusion (FIG. 7)
Sequence of K10N/Q111D human 39MIR double mutant, IChBD fusion (human) (chain, as listed by the source K10N Q111D K10N Q111D): as the sequence (chain, as listed by the source K10N V75I K10N V75I) above, with I27V, Q35D counted along it

[8] = target: K10N/D70A/V75I/Q111D human 39MIR quadruple mutant, IChBD fusion (human); assay: Western blot of peptide-IChBD fusion (FIG. 7)
[9] = target: Torpedo 39MIR peptide-intein-chitin-binding domain (IChBD) fusion protein (Torpedo); assay: Western blot of peptide-IChBD fusion (FIG. 7)
Sequence of Torpedo 39MIR peptide-intein-chitin-binding domain (IChBD) fusion protein (Torpedo) (chain, as listed by the source): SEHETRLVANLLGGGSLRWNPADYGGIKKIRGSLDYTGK

[10] = target: Human 39MIR peptide-intein-chitin-binding domain (IChBD) fusion protein (human); assay: Western blot of peptide-IChBD fusion (FIG. 7)
Sequence of Human 39MIR peptide-intein-chitin-binding domain (IChBD) fusion protein (human) (chain, as listed by the source): as the sequence (chain, as listed by the source K10N V75I K10N V75I) above, with N10K, I27V counted along it

[11] = target: Torpedo 39MIR single mutant A70D, IChBD fusion (Torpedo); assay: Western blot of peptide-IChBD fusion (FIG. 5)
Sequence of Torpedo 39MIR single mutant A70D, IChBD fusion (Torpedo) (chain, as listed by the source A70D A70D): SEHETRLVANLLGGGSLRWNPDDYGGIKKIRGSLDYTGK

[12] = target: Torpedo 39MIR single mutant I75V, IChBD fusion (Torpedo); assay: Western blot of peptide-IChBD fusion (FIG. 5)
Sequence of Torpedo 39MIR single mutant I75V, IChBD fusion (Torpedo) (chain, as listed by the source I75V I75V): as the sequence (chain, as listed by the source A70D A70D) above, with D22A, I27V counted along it

[13] = target: Torpedo 39MIR single mutant D111Q, IChBD fusion (Torpedo); assay: Western blot of peptide-IChBD fusion (FIG. 5)
Sequence of Torpedo 39MIR single mutant D111Q, IChBD fusion (Torpedo) (chain, as listed by the source D111Q D111Q): as the sequence (chain, as listed by the source A70D A70D) above, with D22A, D35Q counted along it

[14] = target: Torpedo 39MIR single mutant K115H, IChBD fusion (Torpedo); assay: Western blot of peptide-IChBD fusion (FIG. 5)
Sequence of Torpedo 39MIR single mutant K115H, IChBD fusion (Torpedo) (chain, as listed by the source K115H K115H): as the sequence (chain, as listed by the source A70D A70D) above, with D22A, K39H counted along it

[15] = target: Torpedo 39MIR single mutant R66K, IChBD fusion (Torpedo); assay: Western blot of peptide-IChBD fusion (FIG. 5)
Sequence of Torpedo 39MIR single mutant R66K, IChBD fusion (Torpedo) (chain, as listed by the source R66K R66K): as the sequence (chain, as listed by the source A70D A70D) above, with R18K, D22A counted along it

[16] = target: Torpedo 39MIR single mutant R79H, IChBD fusion (Torpedo); assay: Western blot of peptide-IChBD fusion (FIG. 5)
Sequence of Torpedo 39MIR single mutant R79H, IChBD fusion (Torpedo) (chain, as listed by the source R79H R79H): as the sequence (chain, as listed by the source A70D A70D) above, with D22A, R31H counted along it

[17] = target: Torpedo 39MIR peptide-intein-chitin-binding domain (IChBD) fusion protein (Torpedo); assay: Western blot of peptide-IChBD fusion (FIG. 5)
[18] = target: Torpedo 39MIR single mutant L12F, IChBD fusion (Torpedo); assay: Western blot of peptide-IChBD fusion (FIG. 5)
Sequence of Torpedo 39MIR single mutant L12F, IChBD fusion (Torpedo) (chain, as listed by the source L12F L12F): as the sequence (chain, as listed by the source A70D A70D) above, with L12F, D22A counted along it

[19] = target: Torpedo 39MIR single mutant N10K, IChBD fusion (Torpedo); assay: Western blot of peptide-IChBD fusion (FIG. 5)
Sequence of Torpedo 39MIR single mutant N10K, IChBD fusion (Torpedo) (chain, as listed by the source N10K N10K): as the sequence (chain, as listed by the source A70D A70D) above, with N10K, D22A counted along it

[20] = target: V75I human 39MIR mutant, IChBD fusion (human); assay: Western blot
Sequence of V75I human 39MIR mutant, IChBD fusion (human) (chain, as listed by the source V75I V75I): as the sequence (chain, as listed by the source K10N V75I K10N V75I) above, with N10K counted along it

[21] = target: Q111D human 39MIR mutant, IChBD fusion (human); assay: Western blot
Sequence of Q111D human 39MIR mutant, IChBD fusion (human) (chain, as listed by the source Q111D Q111D): as the sequence (chain, as listed by the source K10N V75I K10N V75I) above, with N10K, I27V, Q35D counted along it

[22] = target: K10N human 39MIR mutant, IChBD fusion (human); assay: Western blot
Sequence of K10N human 39MIR mutant, IChBD fusion (human) (chain, as listed by the source K10N K10N): as the sequence (chain, as listed by the source K10N V75I K10N V75I) above, with I27V counted along it

[23] = target: Torpedo 39MIR peptide-intein-chitin-binding domain (IChBD) fusion protein (Torpedo); assay: Western blot (FIG. 3)
[24] = target: V75I human 39MIR mutant, IChBD fusion (human); assay: Western blot of peptide-IChBD fusion (Table 3)
[25] = target: Q111D human 39MIR mutant, IChBD fusion (human); assay: Western blot of peptide-IChBD fusion (Table 3)
[26] = target: Torpedo 39MIR peptide-intein-chitin-binding domain (IChBD) fusion protein (Torpedo); assay: Western blot of peptide-IChBD fusion (Table 3)
[27] = target: D70A human 39MIR mutant, IChBD fusion (human); assay: Western blot of peptide-IChBD fusion (Table 3)
Sequence of D70A human 39MIR mutant, IChBD fusion (human) (chain, as listed by the source D70A D70A): as the sequence (chain, as listed by the source K10N V75I K10N V75I) above, with N10K, D22A, I27V counted along it

[28] = target: K10N human 39MIR mutant, IChBD fusion (human); assay: Western blot of peptide-IChBD fusion (Table 3)
[29] = target: Human 39MIR peptide-intein-chitin-binding domain (IChBD) fusion protein (human); assay: Western blot of peptide-IChBD fusion (Table 3)

Sequence of K10N/V75I/Q111D human 39MIR triple mutant, IChBD fusion (human) (chain, as listed by the source K10N V75I Q111D K10N V75I Q111D): as the sequence (chain, as listed by the source K10N V75I K10N V75I) above, with Q35D counted along it
Sequence of K10N/D70A human 39MIR double mutant, IChBD fusion (human) (chain, as listed by the source K10N D70A K10N D70A): as the sequence (chain, as listed by the source K10N V75I K10N V75I) above, with D22A, I27V counted along it
Sequence of K10N/D70A/V75I/Q111D human 39MIR quadruple mutant, IChBD fusion (human) (chain, as listed by the source K10N D70A V75I Q111D K10N D70A V75I Q111D): as the sequence (chain, as listed by the source K10N V75I K10N V75I) above, with D22A, Q35D counted along it

With mAb 198 (antibody) the fold improvement in binding compared to the human 39MIR [1] was 28 fold, the fold improvement in binding compared to the human 39MIR [2] was 11 fold and the fold-change in binding relative to Torpedo 39MIR [3] was 0.72 fold. It also gave a fold-change in binding relative to Torpedo 39MIR [4] of 1.79 fold, a fold-change in binding relative to Torpedo 39MIR [5] of 2.52 fold and a fold-change in binding relative to Torpedo 39MIR [6] of 2.71 fold. The fold-change in binding relative to Torpedo 39MIR [7] was 1.19 fold, the fold-change in binding relative to Torpedo 39MIR [8] was 0.99 fold and the fold-change in binding relative to Torpedo 39MIR [9] was 1 fold. It also gave a fold-change in binding relative to Torpedo 39MIR [10] of 0.09 fold, a fold-change in binding relative to Torpedo 39MIR [11] of 1.08 fold and a fold-change in binding relative to Torpedo 39MIR [12] of 0.16 fold. For the same substance, the fold-change in binding relative to Torpedo 39MIR [13] was 0.16 fold, the fold-change in binding relative to Torpedo 39MIR [14] was 1.07 fold and the fold-change in binding relative to Torpedo 39MIR [15] was 1.03 fold. The fold-change in binding relative to Torpedo 39MIR [16] was 0.97 fold, the fold-change in binding relative to Torpedo 39MIR [17] was 1 fold and the fold-change in binding relative to Torpedo 39MIR [18] was 0.9 fold. For the same substance, the fold-change in binding relative to Torpedo 39MIR [19] was 0.82 fold, the fold improvement in binding compared to the human 39MIR [20] was 40 fold and the fold improvement in binding compared to the human 39MIR [21] was 35.7 fold. The fold improvement in binding compared to the human 39MIR [22] was 13 fold, the fold stronger binding than to the human MIR mimic [23] was 50 fold and the fold-change in binding relative to Torpedo 39MIR [24] was 0.65 fold. The fold-change in binding relative to Torpedo 39MIR [25] was 0.59 fold, the fold-change in binding relative to Torpedo 39MIR [26] was 1 fold and the fold-change in binding relative to Torpedo 39MIR [27] was 0.02 fold. For the same substance, the fold-change in binding relative to Torpedo 39MIR [28] was 0.23 fold and the fold-change in binding relative to Torpedo 39MIR [29] was 0.02 fold.

In the case of mAb 35 (antibody), the fold-change in binding relative to Torpedo 39MIR [3] is reported as 0.31 fold, the fold-change in binding relative to Torpedo 39MIR [4] is reported as 1.1 fold and the fold-change in binding relative to Torpedo 39MIR [5] is reported as 2.97 fold. It also gave a fold-change in binding relative to Torpedo 39MIR [6] of 0.92 fold, a fold-change in binding relative to Torpedo 39MIR [7] of 2.31 fold and a fold-change in binding relative to Torpedo 39MIR [8] of 1.7 fold. The fold-change in binding relative to Torpedo 39MIR [9] was 1 fold, the fold-change in binding relative to Torpedo 39MIR [11] was 0.93 fold and the fold-change in binding relative to Torpedo 39MIR [15] was 0.62 fold. It also gave a fold-change in binding relative to Torpedo 39MIR [16] of 1.91 fold, a fold-change in binding relative to Torpedo 39MIR [17] of 1 fold and a fold-change in binding relative to Torpedo 39MIR [18] of 1.42 fold. For the same substance, the fold-change in binding relative to Torpedo 39MIR [19] was 0.29 fold, the fold-change in binding relative to Torpedo 39MIR [24] was 0.03 fold and the fold-change in binding relative to Torpedo 39MIR [25] was 0.06 fold. The fold-change in binding relative to Torpedo 39MIR [26] was 1 fold and the fold-change in binding relative to Torpedo 39MIR [28] was 0.01 fold.

Work on mAb 132A (antibody) yielded a fold-change in binding relative to Torpedo 39MIR [3] of 0.16 fold, a fold-change in binding relative to Torpedo 39MIR [4] of 1.25 fold and a fold-change in binding relative to Torpedo 39MIR [5] of 2.46 fold. For the same substance, the fold-change in binding relative to Torpedo 39MIR [6] was 3.34 fold, the fold-change in binding relative to Torpedo 39MIR [7] was 1.07 fold and the fold-change in binding relative to Torpedo 39MIR [8] was 0.99 fold. It also gave a fold-change in binding relative to Torpedo 39MIR [9] of 1 fold, a fold-change in binding relative to Torpedo 39MIR [11] of 0.2 fold and a fold-change in binding relative to Torpedo 39MIR [12] of 0.06 fold. It also gave a fold-change in binding relative to Torpedo 39MIR [13] of 0.07 fold, a fold-change in binding relative to Torpedo 39MIR [14] of 0.4 fold and a fold-change in binding relative to Torpedo 39MIR [15] of 1.55 fold. For the same substance, the fold-change in binding relative to Torpedo 39MIR [16] was 1.65 fold, the fold-change in binding relative to Torpedo 39MIR [17] was 1 fold and the fold-change in binding relative to Torpedo 39MIR [18] was 1.1 fold. It also gave a fold-change in binding relative to Torpedo 39MIR [19] of 0.03 fold and a fold-change in binding relative to Torpedo 39MIR [26] of 1 fold.
